In patent US12116698:
Where no end group is shown, it is not given here. [ ]: non-standard residue; d: D form. fluorescent label = not defined here; Dap = NC[C@H](N)C(=O)O; Cm = not defined here

T1: sortase A (SrtA) (S. aureus), Q2FV99
T1 chain: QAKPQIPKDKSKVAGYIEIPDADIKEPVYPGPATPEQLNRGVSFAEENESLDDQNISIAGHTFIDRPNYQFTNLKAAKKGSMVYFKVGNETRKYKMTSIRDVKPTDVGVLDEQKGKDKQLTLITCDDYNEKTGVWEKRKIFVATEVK

B1: SA1 (peptide)
peptide: A[Cm]TPRSANY[Cm]GGG[Dap](fluorescent label)
modifications: not fully specified; reading uncertain; also: fluorescent label not named
B2: SA2 (peptide)
peptide: A[Cm]DGRPDRA[Cm]GGG[Dap](fluorescent label)
modifications: not fully specified; reading uncertain; also: fluorescent label not named
B3: W1 (peptide)
peptide: ACHPVSGQKCGGG[Dap](fluorescent label)
modifications: not fully specified (residues 2, 10); cysteine pairing not given here; reading uncertain; also: Cm code not defined, fluorescent label not named
B4: W2 (peptide)
peptide: ACLNSSQPSCGGG[Dap](fluorescent label)
modifications: not fully specified (residues 2, 10); cysteine pairing not given here; reading uncertain; also: Cm code not defined, fluorescent label not named

Experiments:
Streptavidin, P22629 = assay: fluorescence intensity of streptavidin-coated beads at varied peptide concentrations, hyperbola fit
Streptavidin, P22629, sequence (P22629 37-163 limits assumed): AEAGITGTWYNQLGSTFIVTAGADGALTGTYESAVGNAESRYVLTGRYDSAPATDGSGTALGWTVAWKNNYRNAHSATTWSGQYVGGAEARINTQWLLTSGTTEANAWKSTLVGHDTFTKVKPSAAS

[1] = target: T1, sortase A (SrtA) (S. aureus), Q2FV99; assay: mean fluorescence intensity of SrtA-coated beads against peptide concentration, curve fit
[2] = target: T1, sortase A (SrtA) (S. aureus), Q2FV99; assay: fluorescence polarization (anisotropy), SrtA titrated into peptide solution

Row | Binder | Kd (Streptavidin, P22629) [µM] | Kd [1] [µM] | Kd [2] [µM]
1 | B1 | 6 |  | 
2 | B2 | 9 |  | 
3 | B3 |  | 14 | 
4 | B4 |  | 14 | 12
